# Measured values as given in patent US20240117018A1.
# What was measured:
# Assay in all cases: cell-based or functional assay
# [1] = biological target: HIV-1 Env of pseudovirus CAP45.2.00.G3 (HIV-1)
# [2] = biological target: HIV-1 Env of pseudovirus Q842.d12 (HIV-1)
# [3] = biological target: HIV-1 Env of pseudovirus 6244_13_B5_4576 (HIV-1)
# [4] = biological target: HIV-1 Env of pseudovirus TRO.11 (HIV-1)
# [5] = biological target: HIV-1 Env of pseudovirus ZM53M.PB12 (HIV-1)
# [6] = biological target: HIV-1 Env of pseudovirus X1632_S2_B10 (HIV-1)
# [7] = biological target: HIV-1 Env of pseudovirus 6535.3 (HIV-1)
# [8] = biological target: HIV-1 Env of pseudovirus CNE30 (HIV-1)
# [9] = biological target: HIV-1 Env of pseudovirus 235-47 (HIV-1)
# [10] = biological target: HIV-1 Env of pseudovirus ZM135M.PL10a (HIV-1)
# [11] = biological target: HIV-1 Env of pseudovirus MS208.A1 (HIV-1)
# [12] = biological target: HIV-1 Env of pseudovirus CNE52 (HIV-1)
# [13] = biological target: HIV-1 Env of pseudovirus CAAN5342.A2 (HIV-1)
# [14] = biological target: HIV-1 Env of pseudovirus PVO.4 (HIV-1)
# [15] = biological target: HIV-1 Env of pseudovirus SC05_8C11_2344 (HIV-1)
# [16] = biological target: HIV-1 Env of pseudovirus CNE53 (HIV-1)
# [17] = biological target: HIV-1 Env of pseudovirus Du422.1 (HIV-1)
# [18] = biological target: HIV-1 Env of pseudovirus 62357_14_D3_4589 (HIV-1)
# [19] = biological target: HIV-1 Env of pseudovirus AC10.0.29 (HIV-1)
# [20] = biological target: HIV-1 Env of pseudovirus ZM233M.PB6 (HIV-1)
# [21] = biological target: HIV-1 Env of pseudovirus 928-28 (HIV-1)
# [22] = biological target: HIV-1 Env of pseudovirus CNE19 (HIV-1)
# [23] = biological target: HIV-1 Env of pseudovirus WITO4160.33 (HIV-1)
# [24] = biological target: HIV-1 Env of pseudovirus BJOX015000.11.5 (HIV-1)
# [25] = biological target: HIV-1 Env of pseudovirus Ce2010_F5 (HIV-1)
# [26] = biological target: HIV-1 Env of pseudovirus 3817.v2.c59 (HIV-1)
# [27] = biological target: HIV-1 Env of pseudovirus ZM247v1(Rev-) (HIV-1)
# [28] = biological target: HIV-1 Env of pseudovirus SC422661.8 (HIV-1)
# [29] = biological target: HIV-1 Env of pseudovirus ZM197M.PB7 (HIV-1)
# [30] = biological target: HIV-1 Env of pseudovirus CNE20 (HIV-1)
# [31] = biological target: HIV-1 Env of pseudovirus Q461.e2 (HIV-1)
# [32] = biological target: HIV-1 Env of pseudovirus Ce2060_G9 (HIV-1)
# [33] = biological target: HIV-1 Env of pseudovirus Q259.d2.17 (HIV-1)
# [34] = biological target: HIV-1 Env of pseudovirus Ce1172_H1 (HIV-1)
# [35] = biological target: HIV-1 Env of pseudovirus 191955_A11 (HIV-1)
# [36] = biological target: HIV-1 Env of pseudovirus 6811.v7.c18 (HIV-1)
# [37] = biological target: HIV-1 Env of pseudovirus CNE17 (HIV-1)
substance,measurement,setting,value
PGT151 (antibody),neutralization IC50,[1],0.007 µg/mL
same,neutralization IC80,[1],> 50 µg/mL
same,neutralization IC50,[2],0.001 µg/mL
same,neutralization IC80,[2],0.014 µg/mL
same,neutralization IC50,[3],> 50 µg/mL
same,neutralization IC80,[3],> 50 µg/mL
same,neutralization IC50,[4],> 50 µg/mL
same,neutralization IC80,[4],> 50 µg/mL
same,neutralization IC50,[5],> 50 µg/mL
same,neutralization IC80,[5],> 50 µg/mL
same,IC50 (Titer in TZM.bl cells),[6],0.061 µg/mL
same,IC80 (Titer in TZM.bl cells),[6],> 50 µg/mL
same,neutralization IC50,[7],< 0.001 µg/mL
same,neutralization IC80,[7],0.012 µg/mL
same,neutralization IC50,[8],> 50 µg/mL
same,neutralization IC80,[8],> 50 µg/mL
same,IC50 (Titer in TZM.bl cells),[9],38.1 µg/mL
same,IC80 (Titer in TZM.bl cells),[9],> 50 µg/mL
same,neutralization IC50,[10],> 50 µg/mL
same,neutralization IC80,[10],> 50 µg/mL
same,neutralization IC50,[11],< 0.001 µg/mL
same,neutralization IC80,[11],0.003 µg/mL
same,neutralization IC50,[12],0.004 µg/mL
same,neutralization IC80,[12],0.017 µg/mL
same,neutralization IC50,[13],0.005 µg/mL
same,neutralization IC80,[13],0.038 µg/mL
same,neutralization IC50,[14],0.017 µg/mL
same,neutralization IC80,[14],> 50 µg/mL
same,neutralization IC50,[15],0.06 µg/mL
same,neutralization IC80,[15],> 50 µg/mL
same,neutralization IC50,[16],> 50 µg/mL
same,neutralization IC80,[16],> 50 µg/mL
same,neutralization IC50,[17],4.6 µg/mL
same,neutralization IC80,[17],> 50 µg/mL
same,neutralization IC50,[18],0.004 µg/mL
same,neutralization IC80,[18],0.023 µg/mL
same,neutralization IC50,[19],0.007 µg/mL
same,neutralization IC80,[19],0.023 µg/mL
same,neutralization IC50,[20],0.027 µg/mL
same,neutralization IC80,[20],5.16 µg/mL
same,neutralization IC50,[21],> 50 µg/mL
same,neutralization IC80,[21],> 50 µg/mL
same,neutralization IC50,[22],0.014 µg/mL
same,neutralization IC80,[22],> 50 µg/mL
same,neutralization IC50,[23],0.002 µg/mL
same,neutralization IC80,[23],0.021 µg/mL
same,IC50 (Titer in TZM.bl cells),[24],> 50 µg/mL
same,IC80 (Titer in TZM.bl cells),[24],> 50 µg/mL
same,neutralization IC50,[25],> 50 µg/mL
same,neutralization IC80,[25],> 50 µg/mL
same,IC50 (Titer in TZM.bl cells),[26],> 50 µg/mL
same,IC80 (Titer in TZM.bl cells),[26],> 50 µg/mL
same,neutralization IC50,[27],0.009 µg/mL
same,neutralization IC80,[27],> 50 µg/mL
same,neutralization IC50,[28],0.005 µg/mL
same,neutralization IC80,[28],0.028 µg/mL
same,neutralization IC50,[29],0.003 µg/mL
same,neutralization IC80,[29],0.033 µg/mL
same,neutralization IC50,[30],> 50 µg/mL
same,neutralization IC80,[30],> 50 µg/mL
same,neutralization IC50,[31],12.6 µg/mL
same,neutralization IC80,[31],> 50 µg/mL
same,neutralization IC50,[32],0.135 µg/mL
same,neutralization IC80,[32],> 50 µg/mL
same,neutralization IC50,[33],> 50 µg/mL
same,neutralization IC80,[33],> 50 µg/mL
same,neutralization IC50,[34],> 50 µg/mL
same,neutralization IC80,[34],> 50 µg/mL
same,neutralization IC50,[35],0.004 µg/mL
same,neutralization IC80,[35],0.014 µg/mL
same,IC50 (Titer in TZM.bl cells),[36],> 50 µg/mL
same,IC80 (Titer in TZM.bl cells),[36],> 50 µg/mL
same,neutralization IC50,[37],0.093 µg/mL
same,neutralization IC80,[37],> 50 µg/mL
VRC07 (antibody),IC50,[1],0.355 µg/mL
same,IC80,[1],3.09 µg/mL
same,IC50,[2],0.015 µg/mL
same,IC80,[2],0.051 µg/mL
same,IC50,[3],0.065 µg/mL
same,IC80,[3],0.23 µg/mL
same,IC50,[4],0.132 µg/mL
same,IC80,[4],0.456 µg/mL
same,IC50,[5],0.275 µg/mL
same,IC80,[5],1.29 µg/mL
same,IC50,[7],0.169 µg/mL
same,IC80,[7],0.517 µg/mL
same,IC50,[8],0.326 µg/mL
same,IC80,[8],1.08 µg/mL
same,IC50,[10],0.104 µg/mL
same,IC80,[10],0.383 µg/mL
same,IC50,[11],0.12 µg/mL
same,IC80,[11],0.425 µg/mL
same,IC50,[12],0.042 µg/mL
same,IC80,[12],0.142 µg/mL
same,IC50,[13],0.307 µg/mL
same,IC80,[13],1.05 µg/mL
same,IC50,[14],0.063 µg/mL
same,IC80,[14],0.226 µg/mL
same,IC50,[15],0.133 µg/mL
same,IC80,[15],0.401 µg/mL
same,IC50,[16],0.031 µg/mL
same,IC80,[16],0.086 µg/mL
same,IC50,[17],> 50 µg/mL
same,IC80,[17],> 50 µg/mL
same,IC50,[18],0.075 µg/mL
same,IC80,[18],0.256 µg/mL
same,IC50,[19],0.282 µg/mL
same,IC80,[19],0.986 µg/mL
same,IC50,[20],0.152 µg/mL
same,IC80,[20],0.625 µg/mL
same,IC50,[21],0.278 µg/mL
same,IC80,[21],0.957 µg/mL
same,IC50,[22],0.092 µg/mL
same,IC80,[22],0.232 µg/mL
same,IC50,[23],0.042 µg/mL
same,IC80,[23],0.193 µg/mL
same,IC50,[25],0.131 µg/mL
same,IC80,[25],0.48 µg/mL
same,IC50,[27],0.041 µg/mL
same,IC80,[27],0.189 µg/mL
same,IC50,[28],0.054 µg/mL
same,IC80,[28],0.175 µg/mL
same,IC50,[29],0.307 µg/mL
same,IC80,[29],1.27 µg/mL
same,IC50,[30],0.06 µg/mL
same,IC80,[30],0.129 µg/mL
same,IC50,[31],0.282 µg/mL
same,IC80,[31],1.02 µg/mL
same,IC50,[32],0.085 µg/mL
same,IC80,[32],0.422 µg/mL
same,IC50,[33],0.024 µg/mL
same,IC80,[33],0.1 µg/mL
same,IC50,[34],> 50 µg/mL
same,IC80,[34],> 50 µg/mL
same,IC50,[35],0.978 µg/mL
same,IC80,[35],4.82 µg/mL
same,IC50,[37],0.136 µg/mL
same,IC80,[37],0.651 µg/mL
